# Assay results taken from patent US20250352611A1, “METHODS FOR TREATING CATARACTS USING POLYPEPTIDES” (REJUKON BIOPHARM INC., priority 2022, published 2025).
# Legend:
# γD-crystallin [1] = target: T1, γD-crystallin (Homo sapiens, UniProt P07320); assay: γD-crystallin turbidity assay (OD395 nm) at 4° C.; type: biochemical; conditions: γD-crystallin 50 mg/ml, RJK001 0-500 uM, 5 min
# T1 construct: Wild-type human full-length γD-crystallin gene were inserted into pET14b vectors; made in house; host or cells: E. coli BL21 (DE3)
# T1 sequence (P07320 1-174): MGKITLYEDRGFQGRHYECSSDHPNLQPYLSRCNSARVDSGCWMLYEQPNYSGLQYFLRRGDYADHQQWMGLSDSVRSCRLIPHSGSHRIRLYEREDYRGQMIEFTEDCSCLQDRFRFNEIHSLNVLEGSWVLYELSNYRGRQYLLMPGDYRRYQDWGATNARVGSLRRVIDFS
# Description: The purified γD-crystallin was then dissolved in protein solubilization buffer to a final concentration of 50 mg/ml, Place γD-crystallin at 4° C. for 20 minutes to form a stable biphasic phase, add different concentration of the short peptide RJK001 in Sul γD-crystallin in a volume ratio of 1:1, final concentration of RJK001 from low to high is 0 uM, 20 uM, 50 uM, 100 uM, 150 uM, 200 uM, 250 uM, 300 uM and 500 uM, Use a 10 ul pipette tip to mix them well, then place them at 4° C. for 5 min, absorbance at 395 nm (OD395 nm) was monitored at 4° C. using Nanodrop ONE (Thermo Fisher Scientific, Inc.). […] The turbidity level reflects the degree of phase separation.
# For γD-crystallin, γD-crystallin was purified in vitro, then were dissolved in protein solubilization buffer (150 mM NaCl, 50 mM tris-HCl, PH 7.5) to a final concentration of 50 mg/ml, Place γD-crystallin at 4° C. for 20 minutes to induce phase separation.
# We followed the Turbidity Assays experiment as previously reported. Briefly, G3BP1 turbidity analysis were at room temperature and γD-crystallin protein was at 4° C. Proteins and Champ-E(RJK001), Champ-K, Champ-D or mutants are mixed at room temperature for 10 minutes prior to turbidity assays. […] Absorbance at 395 nm (OD395 nm) was monitored at room temperature using Nanodrop ONE (Thermo Fisher Scientific, Inc.).
# [2] = test system: crystallin aggregation from cataract patients; assay: Dissolution of crystallin aggregation in lens lysates from cataract patients; design: species or system human
# Description: 30-50 ml lens lysates after phacoemulsification was collected from cataract patients with different disease progressions. Lanosterol was used as a benchmark medicament (see, Zhao, Ling, et al. “Lanosterol reverses protein aggregation in cataracts.” Nature 523. 7562 (2015): 607-611). […] Moreover, the concentration of the polypeptides provided herein (e.g., RJK001) was as less as 1/100 of the concentration of Lanosterol required to achieve the same dissolving effect.
# 30-50 ml Phacoemulsification of eye lens was collected from cataract patients with different disease progression. Let Phacoemulsification pass the 3KD protein concentration tube, and centrifuge at 4000 g for 20 minutes. centrifuge at 14000 g for 5 minutes after repeating the previous step to get the concentrate. Concentrate phacoemulsification to 200-300 ul every lens. Add 8 ul phacoemulsification concentrate in the following groups: 1, 8 ul crystalline concentrate; 2, 8 ul 1 mM lanosterol; 3, 8 ul 1 mM short peptide RJK001; 4, 8 ul protein solubilization buffer. Use a 20 ul pipette tip to mix them well, then stand still at RT for 20 min.
# γD-crystallin [3] = target: T1, γD-crystallin; assay: 1H-15N HSQC NMR of γD-crystallin with peptide; type: binding; design: interaction with γD-crystallin from chemical shift difference (CSD): dose or concentration left out as unconfirmed
# Description: To evaluate whether a protein undergoes small or significant structural changes before and after adding polypeptides, ^1H-^15N HSQC spectroscopy is a useful tool and can be used as a “fingerprint” of the three-dimensional structure. […] Wild-type human full-length γD-crystallin gene were inserted into pET14b vectors. E. coli BL21 (DE3) cells were transformed with these vectors. For protein production, cells were grown at 37° C. to an absorbance at 600 nm of 0.6 and induced by the addition of 0.5 mM IPTG at 37° C. for 4 h. For the N15 labeling of the protein, the transformed E. coli BL21(DE3) cells were cultured and induced in M9 medium with NH4Cl as the only nitrogen source. […] Using final 300 uM human γD-crystallin at 25° C., the two-dimensional [^1H-^15N] heteronuclear single quantum coherence (HSQC) spectra were recorded to determine the domain interactions at the residue-specific level.
# Chemical shift difference (CSD) was measured for γD-crystallin alone or with Champ-E(RJK001). […]
# HSQC spectrums were acquired and analysis with ccpNMR, amide ^1H-^15N combined chemical shift differences were calculated using the equation Δδ=[(0.125ΔδN)^2+ΔδH^2]^1/2. […]
# The N15 labeled protein was mix with the unlabeled peptide with the ratio of 1:0, 1:2. […] Amide ^1H-^15N combined chemical shift differences were calculated using the equation Δδ) [(0.125ΔδN)^2+ΔδH^2]. Intensity changes were calculated by I/I0. […]
sequence,measurement,setting,value
"TEPQEESEEEVEEPEERQQTPEVVPDDSGTFYDQTVSNDLE [RJK001, polypeptide with hydrophilic and hydrophobic segment, expressed in E. coli]",turbidity of γD-crystallin (OD395 nm),γD-crystallin [1],reduced the turbidity of γD-crystallin in a concentration dependent manner
same,dissolving crystallin aggregation in lens lysates,"[2]; lens lysates after phacoemulsification, RT 20 min",could effectively dissolve the crystallin aggregation from cataract patients
same,concentration relative to the concentration of Lanosterol required to achieve the same dissolving effect,"[2]; lens lysates from cataract patients, Lanosterol as benchmark",1/100
same,1H-15N HSQC spectra of γD-crystallin prior to and after peptide incubation,"γD-crystallin [3]; 300 uM 15N γD-crystallin, molar ratio 1:2, 25° C.",significant chemical shifts
same,interaction with γD-crystallin from chemical shift difference (CSD),γD-crystallin [3]; molar ratio γD-crystallin:RJK001 1:2,interacted with the full-length wildtype γD-crystallin protein
